Data from the RNAGym collection of RNA variant scans (doi:10.1073/pnas.2313332121).

B1: TPR t1 (parent)
chain: GACCAAUCUGCCCUCAGAGCUCGAGAACAUCUUCGGAUGCAGAGGAGGCAGGCUUCGGUGGCGCGAUAGCGCCAACGUCCUCAACCUCCAAUGCAUCCCACCACAUGAUGAUGCCUGAAGAGCCUUGGUUUUUUG

Variants of: B1
Test: polymerase ribozyme fitness, log enrichment relative to wild type (log ratio); higher = more active; in vitro selection for triplet polymerase activity
Method in brief: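 In triplicate, a single round of in vitro selection was run on each mutant library, PCR-built and transcribed, covering one subunit of a heterodimeric triplet polymerase ribozyme. Frozen incubation at −7 °C followed annealing with a biotinylated primer, partner subunit and triplets, and extended constructs were then gel-excised, streptavidin-captured and taken through RT-PCR. Fitness is the logarithm of genotype enrichment over wild-type enrichment, from inverse-variance-weighted replicate averages of Illumina-sequenced inputs and outputs. […] only genotypes with ≥10 input reads and ≥1 read per output were kept.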

| Variant | polymerase ribozyme fitness (log ratio) |
| --- | --- |
| G39A C86A C123A | -1.81 |
| U38A U130C | -0.259 |
| A37U C62U U96G | -0.183 |
| A37U G69U | -0.0814 |
| U38A C102U A111G U112A U126G U129C | -6.23 |
| U38A G57U G58U | -1.64 |
| A37U U54A G61C C102A | -4.66 |
| A37U C40G G63A A66G C82A U109G | -6.22 |
| U38G C76U | -1.36 |
| U38C C70A | -1.91 |
| A37U U131A | -0.895 |
| U38G C64U | -1.09 |
| G39A G71A | -1.08 |
| G39A G71U | -0.815 |
| U38G G58U G63C G113C G135C | -4.03 |
| G39A C85U | -1.3 |
| A37U G69C C72U C85U | -1.89 |
| A37U G47A G77A | -1.29 |
| G39A G117C | -4.05 |
| G39A G117A | -1.8 |
| G39A G117U | -2.58 |
| U38G G39U U54G U87A G113C | -3.28 |
| A37U C82U G128C U130C | -2.33 |
| G39A A50U G63C | -2.66 |

| Variant | polymerase ribozyme fitness (log ratio) |
| --- | --- |
| U38G C124U | 0.564 |
| G39A C62U G122A | -1.13 |
| A37U U54C G60U | 1.01 |
| G39A G69C U112A | -1.42 |
| G39A G57U G71U U78G | -1.84 |
| U38C U112A | 1.08 |
| G39A G44U C86A A108U C115U G128U U130G | -6.8 |
| G39A G71C G93C C94U | -2.14 |
| U38G C53G G69U C98A | -6.04 |
| G39A U78A A108G A111C | -1.88 |
| G39A C62U A83U U87G | -0.927 |
| U38A G60U C62A C115G | -6.12 |
| A37U C82G G110C | -6.53 |
| U38A G69C | -2.61 |
| U38G C56U A91U U125G U126G G127U | -3.43 |
| U38G G113U U125G | -3.75 |
| A37U U126A | -2.55 |
| U38G C70U C80U G120C | -1.36 |
| G39A G48U A50U A84U C85A | -3.82 |
| G39C C115A | -1.12 |
| G39C C73U C99U C102A C124A G135A | -4.92 |
| A37U G77A A90U C123U | -0.717 |
| U38A C94G | -2.2 |
| G39C A118C | -2.89 |

| Variant | polymerase ribozyme fitness (log ratio) |
| --- | --- |
| U38A C80U C123U | -1.04 |
| U38G U55C G61A A91C A108C G110U C124A U126C | -6.93 |
| U38G G45C G69C C101A A119U | -7.2 |
| G39C C53G C124U G128U | -0.975 |
| G39C C89A C99U U106A A111G | -6 |
| G39C C56G C72U | -1.49 |
| G39A G58A A91U | -2.28 |
| G39C A50U C53U U78G | -2.26 |
| A37U C70A U109A | -6.47 |
| U38G A95C A100C U106A G127A | -3.43 |
| A37U G60U | -1.39 |
| A37U G61U C114A U130A | -1.52 |
| A37U G47C C49U | -2.66 |
| G39A C53G G57C | 0.135 |
| G39A A119U | -0.287 |
| U38A C53G C88G G120A C123G | -1.3 |
| G39A C56G | -1.24 |
| G39A U92A | -3.56 |
| G39A U92C | -2.34 |
| G39A G63U | -2.24 |
| G39A G63C | -1.48 |
| A37U G113A C123U | -2.5 |
| A37U C62G | -3.59 |
| U38G G47U C76U C85U U96C U130C | -5.5 |

| Variant | polymerase ribozyme fitness (log ratio) |
| --- | --- |
| A37U C80U C101A | -2.69 |
| U38G U112C | 0.772 |
| U38A G63C C85U | -2.4 |
| G39A G69U C79A G127A | -2.91 |
| U38G C104A | -1.93 |
| G39A G45C G51C G69U U125G | -2.57 |
| G39A C40U | -1.56 |
| G39C A43U C85A U112A C115U U130C | -4.22 |
| A37U G45U G61C | -2.86 |
| G39A C72U U81G U96A G113C C124U | -6.86 |
| U38A C40U | -1.9 |
| G39A G61C A118G G122A | -3.03 |
| G39A C70U A118G G122A | -0.719 |
| A37U G39C G57C G61A U106C G113C | -4.04 |
| A37U C49G U55A C104A | -1.38 |
| G39A G113C A119U | -3.54 |
| G39C A43G G48U U54G G93C G113A | -5.27 |
| U38G U96A C101U | -2.15 |
| A37U G77U G93C | -2.05 |
| U38A A41G G44A C64U C82U | -4.14 |
| U38A G52U C62U U78G A90G | -2.07 |
| A37U G69U A118C | -2.82 |
| A37U C73A U87C | 0.034 |
| A37U C86U | -0.912 |

| Variant | polymerase ribozyme fitness (log ratio) |
| --- | --- |
| G39A U132A | -0.367 |
| A37U C86A U112G G128A | -3.56 |
| A37U C70A C99U | -5.64 |
| G39A G71C G93U C104U C123A | -3.19 |
| G39A A46U G61A U129A | -2.38 |
| G39C C73A A74U | -0.844 |
| U38C C53A G93C G122A C123U | -2.19 |
| U38G C64U A66C A90U A91C U132A | -3.61 |
| G39A A74U C82A | -0.903 |
| U38A G60A C79U | -1.22 |
| U38G G52A G61A U112G C124U U129G | -1.92 |
| G39A G63U C82U U133G | -2.41 |
| U38A A83C U92C C124A | -1.34 |
| U38A C53G C56U G110A | -2.64 |
| G39A C62U A75U A83C U87C | -1.16 |
| G39C A41U C72U A74U G113U C114U A121G | -1.73 |
| U38G G71U U92G G93A U112A | -6.86 |
| U38G G60A G110C U125A | -6.15 |
| A37U C70U C79U | -0.766 |
| A37U C40U U87G | -1.01 |
| U38G G45U G47A C73U | -5.77 |
| A37U C49A C86U G117C | -4.27 |
| U38C G110U G135U | -3.96 |
| A37U G39C U54C U59G C89A U112A A121C | -4.68 |

| Variant | polymerase ribozyme fitness (log ratio) |
| --- | --- |
| U38G G93C A121U U133G | -1.6 |
| G39C C98U G117A | -3.94 |
| G39A G60A | -0.734 |
| G39A G60U | 0.0117 |
| G39A G48A C88A | -1.33 |
| U38A G48U C49A U87A C115A | -3.9 |
| G39A C102A | -2.49 |
| A37U C72A C73U G117U C124A | -1.66 |
| A37U G52U C64U C123A C124A | 0.273 |
| A37U C64U | -1.67 |
| U38G U125G | -1.35 |
| A37U C40A C94U | -4.04 |
| G39A G61A U78C | -0.505 |
| A37U C123U U126A | 0.344 |
| A37U C72U C98A C123G | -5.11 |
| G39C C115U C124A | -0.672 |
| A37U C114A A121C U125C | -0.52 |
| G39A | -0.485 |
| G39C | -0.776 |
| A37U G60U G113U | -3.06 |
| G39A C89G C101U | -1.85 |
| A37U U54C G60U C123U | 1.13 |
| A37U G110A | -1.04 |
| A37U G110U | -1.34 |

| Variant | polymerase ribozyme fitness (log ratio) |
| --- | --- |
| G39C C104U | -1.04 |
| A37U U78C | -0.461 |
| A37U G122A U130C U131A G135U | -1.18 |
| U38C A43U C86A | -2.82 |
| U38G A95C | 0.185 |
| U38A C82A C114A G120C A121C U132C | -3.34 |
| A37U G51A A100C U112A | -5.37 |
| A37U G39U C104U | -1.36 |
| G39C C40U G69A | -4.36 |
| A37U G48C A121C | 0.912 |
| G39A A75U G110C | -5.51 |
| A37U C94U G117A | -2.17 |
| U38A G52A U55G G128A | -2.73 |
| U38G C56A G69U | -1.9 |
| G39C C73G C102A | -4.36 |
| A37U G45U C56U C70G C102G G113A U125A | -7.38 |
| A37U G42C C49G C85U G93U C102U U133G | -5.53 |
| G39A A84C | -1.2 |
| U38G C89A | -2.14 |
| U38G A46C C101U | -2.55 |
| G39C A41U | -2.47 |
| U38G C70U U125G | -2.25 |
| U38G G77A U78C U125A | -1.89 |
